Results reported in patent EP4772538A1 (Beijing Wisdomab Biotechnology Co., Ltd, dated 2026).

Assays:
[1] = biological target: T1, HLA-A02/MAGE-A4 complex on the cell surface (MAGE-A4230-239 (…) presented by HLA-A02) (human); test: cell-based or functional assay
[2] = biological target: T1, HLA-A02/MAGE-A4 complex on the cell …; test: cell-based or functional assay; remark: listed apart in the source
[3] = biological target: T2, HLA-A02 complex of … (MHC-P1-His), disulfide trap single-chain trimer (human); test: SPR, Biacore T200, method of Section 3.1; affinity for MHC-P1
T2 construct: also called recombinant protein MHC-P1

[4] = biological target: T1, HLA-A02/MAGE-A4 complex on the cell …; test: cell-based or functional assay; remark: listed apart in the source
[5] = biological target: T1, HLA-A02/MAGE-A4 complex on the cell …; test: cell-based or functional assay; remark: listed apart in the source
[6] = biological target: T3, HLA-A02 complex of alanine-scanning mutant peptide V10A of MAGE-A4230-239 on pulsed T2 cells (human); test: flow cytometry on peptide-pulsed T2 cells, N18D10-Fc at 10 nM, anti-human IgG-FITC
T3 construct: whole, on cells

[7] = biological target: T4, HLA-A02 complex of alanine-scanning mutant peptide Y3A of MAGE-A4230-239 on pulsed T2 cells (human); test: as above
T4 construct: whole, on cells

[8] = biological target: T5, HLA-A02 complex of alanine-scanning mutant peptide R6A of MAGE-A4230-239 on pulsed T2 cells (human); test: as above
T5 construct: whole, on cells

[9] = biological target: T1, HLA-A02/MAGE-A4 complex on the cell …; test: as above
[10] = biological target: T6, HLA-A02 complex of alanine-scanning mutant peptide T9A of MAGE-A4230-239 on pulsed T2 cells (human); test: as above
T6 construct: whole, on cells

[11] = biological target: T7, HLA-A02 complex of alanine-scanning mutant peptide H8A of MAGE-A4230-239 on pulsed T2 cells (human); test: as above
T7 construct: whole, on cells

[12] = biological target: T8, HLA-A02 complex of alanine-scanning mutant peptide G5A of MAGE-A4230-239 on pulsed T2 cells (human); test: as above
T8 construct: whole, on cells

[13] = biological target: T9, HLA-A02 complex of alanine-scanning mutant peptide V2A of MAGE-A4230-239 on pulsed T2 cells (human); test: as above
T9 construct: whole, on cells

[14] = biological target: T10, HLA-A02 complex of alanine-scanning mutant peptide D4A of MAGE-A4230-239 on pulsed T2 cells (human); test: as above
T10 construct: whole, on cells

[15] = biological target: T11, HLA-A02 complex of alanine-scanning mutant peptide E7A of MAGE-A4230-239 on pulsed T2 cells (human); test: as above
T11 construct: whole, on cells

[16] = biological target: T2, HLA-A02 complex of … (MHC-P1-His), …; test: SPR, Biacore T200; antibody captured by anti-human IgG (Fc), MHC-P1-His injected, 25°C, 1:1 model
[17] = biological target: T2, HLA-A02 complex of … (MHC-P1-His), …; test: SPR, Biacore T200, method of Section 3.1; antibody captured, MHC-P1-His injected

Binder	EC50 of activation of Jurkat-Dual cells via HLA-A02+/MAGE-A4+ tumor cells A375 (QUANTI-Luc) [1]	EC50 of killing of antigen peptide-pulsed T2 cells via PBMCs (LDH release) [2]	Kd [3]	koff [3]	kon [3]	EC50 of killing of A375 cells (HLA-A02+/MAGE-A4+) via PBMCs (LDH release) [4]	EC50 of activation of Jurkat-Dual cells via antigen peptide-pulsed T2 cells (QUANTI-Luc) [5]	further results
TCRm x CD3 bispecific antibody 2N18D10-h16+IMCR (bispecific antibody, also called 22N18D10-h16+IMCR) chain 1: QVQLVESGGGLVKPGGSLRLSCAVSGFTFDDSDMGWYRQAPGNECELVSTITTDGSTYYADSVKGRFTISQDNAKTSAYLQMNSLRAEDTAVYYCAADLPILRPTPCGDSVLYNYWGQGTTVTVSSGGGGSGGGGSGGGGSQVQLVESGGGLVKPGGSLRLSCAVSGFTFDDSDMGWYRQAPGNECELVSTITTDGSTYYADSVKGRFTISQDNAKTSAYLQMNSLRAEDTAVYYCAADLPILRPTPCGDSVLYNYWGQGTTVTVSSASERKSSVECPPCPAPEFEGGPSVFLFPPKPKDTLMISRTPEVTCVVVDVSQEDPEVQFNWYVDGVEVHNAKTKPREEQYNSTYRVVSVLTVLHQDWLNGKEYKCKVSNKALPASIEKTISKAKGQPREPQVCTLPPSQEEMTKNQVSLSCAVKGFYPSDIAVEWESNGQPENNYKTTPPVLDSDGSFFLVSKLTVDKSRWQEGNVFSCSVMHEALHNHYTQKSLSLSPGK chain 2: not shown	0.145 nM	0.00256 nM	0.43 nM	7.83e-05 s⁻¹	182000 M⁻¹ s⁻¹	0.0761 nM	0.0143 nM	
anti-HLA-A02/MAGE-A4 complex TCRm antibody N18D10-Fc (Fc fusion, Camel VHH fused to the Fc region of human IgG1; not shown: Fc region of human IgG1) EVQLVESGGGSVQTGETLRLSCTVSGFTFDDSDMGWYRQAPGNECELVSTITTDGSTYYADSVKGRFTISQDNAKTTAYLQMDSLKPEDTAVYYCAADLPILRPTPCGDSVLYNYWGQGTQVTVSS								binding relative to the original peptide [6]: 0.35%; binding relative to the original peptide [7]: -0.12%; binding relative to the original peptide [8]: -0.56%; binding relative to the original peptide [9]: 100%; binding relative to the original peptide [10]: 33.6%; binding relative to the original peptide [11]: -0.13%; binding relative to the original peptide [12]: -1.02%; binding relative to the original peptide [13]: 41.1%; binding relative to the original peptide [14]: 18.4%; binding relative to the original peptide [15]: 27.4%; Kd [16]: 0.388 nM; koff [16]: 7.18e-05 s⁻¹; kon [16]: 185000 M⁻¹ s⁻¹
humanized anti-HLA-A02/MAGE-A4 complex TCRm antibody N18D10-h16-Fc (Fc fusion, Humanized VHH fused to the Fc region of human IgG1; not shown: Fc region of human IgG1) QVQLVESGGGLVKPGGSLRLSCAVSGFTFDDSDMGWYRQAPGNECELVSTITTDGSTYYADSVKGRFTISQDNAKTSAYLQMNSLRAEDTAVYYCAADLPILRPTPCGDSVLYNYWGQGTTVTVSS								Kd [17]: 0.467 nM; koff [17]: 7.61e-05 s⁻¹; kon [17]: 163000 M⁻¹ s⁻¹
TCRm x CD3 bispecific antibody 2N18D10+IMCR (bispecific antibody) chain 1: EVQLVESGGGSVQTGETLRLSCTVSGFTFDDSDMGWYRQAPGNECELVSTITTDGSTYYADSVKGRFTISQDNAKTTAYLQMDSLKPEDTAVYYCAADLPILRPTPCGDSVLYNYWGQGTQVTVSSGGGGSGGGGSGGGGSEVQLVESGGGSVQTGETLRLSCTVSGFTFDDSDMGWYRQAPGNECELVSTITTDGSTYYADSVKGRFTISQDNAKTTAYLQMDSLKPEDTAVYYCAADLPILRPTPCGDSVLYNYWGQGTQVTVSSASERKSSVECPPCPAPEFEGGPSVFLFPPKPKDTLMISRTPEVTCVVVDVSQEDPEVQFNWYVDGVEVHNAKTKPREEQYNSTYRVVSVLTVLHQDWLNGKEYKCKVSNKALPASIEKTISKAKGQPREPQVCTLPPSQEEMTKNQVSLSCAVKGFYPSDIAVEWESNGQPENNYKTTPPVLDSDGSFFLVSKLTVDKSRWQEGNVFSCSVMHEALHNHYTQKSLSLSPGK chain 2: not shown	0.189 nM	0.00236 nM	0.388 nM	7.61e-05 s⁻¹	196000 M⁻¹ s⁻¹	0.0498 nM	0.0145 nM	
anti-HLA-A02/MAGE-A4 complex and anti-CD3 control bispecific antibody 057G03 (bispecific antibody, also called 057D03 (variable regions)) heavy 1: AQLVESGGGLVQPGGSLRLSCAASAYFSFKAMSWVRQAPGKGLEWVGSISPSGGSTYYNDNVLGRFTISRDNSKNTLYLQMNSLRAEDTAVYYCAKDVGFFDEWGQGTLVTVSSASTKGPSVFPLAPSSKSTSGGTAALGCLVEDYFPEPVTVSWNSGALTSGVHTFPAVLQSSGLYSLSSVVTVPSSSLGTQTYICNVNHKPSNTKVDEKVEPKSCDGGGGSGGGGSDIQMTQSPSSLSASVGDRVTITCRASQDIRNYLNWYQQKPGKAPKLLIYYTSRLESGVPSRFSGSGSGTDYTLTISSLQPEDFATYYCQQGNTLPWTFGQGTKVEIKSSASTKGPSVFPLAPSSKSTSGGTAALGCLVKDYFPEPVTVSWNSGALTSGVHTFPAVLQSSGLYSLSSVVTVPSSSLGTQTYICNVNHKPSNTKVDKRVERKSCVECPPCPAPEFEGGPSVFLFPPKPKDTLMISRTPEVTCVVVDVSHEDPEVKFNWYVDGVEVHNAKTKPREEQYNSTYRVVSVLTVLHQDWLNGKEYKCKVSNKALPASIEKTISKAKGQPREPQVYTLPPCREEMTKNQVSLWCLVKGFYPSDIAVEWESNGQPENNYKTTPPVLDSDGSFFLYSKLTVDKSRWQQGNVFSCSVMHEALHNHYTQKSLSLSPGK heavy 2: AQLVESGGGLVQPGGSLRLSCAASAYFSFKAMSWVRQAPGKGLEWVGSISPSGGSTYYNDNVLGRFTISRDNSKNTLYLQMNSLRAEDTAVYYCAKDVGFFDEWGQGTLVTVSSASTKGPSVFPLAPSSKSTSGGTAALGCLVEDYFPEPVTVSWNSGALTSGVHTFPAVLQSSGLYSLSSVVTVPSSSLGTQTYICNVNHKPSNTKVDEKVERKSCVECPPCPAPEFEGGPSVFLFPPKPKDTLMISRTPEVTCVVVDVSQEDPEVQFNWYVDGVEVHNAKTKPREEQYNSTYRVVSVLTVLHQDWLNGKEYKCKVSNKALPASIEKTISKAKGQPREPQVCTLPPSQEEMTKNQVSLSCAVKGFYPSDIAVEWESNGQPENNYKTTPPVLDSDGSFFLVSKLTVDKSRWQEGNVFSCSVMHEALHNHYTQKSLSLSPGK light: DIQMTQSPSSLSASVGDRVTITCRASQSISSYLAWYQQKPGKAPKLLIYDASIRDIGVPSRFSGSGSGTDFTLTISSLQPEDFATYYCQQYSSYPYTFGQGTKLEIKRTVAAPSVFIFPPSDRKLKSGTASVVCLLNNFYPREAKVQWKVDNALQSGNSQESVTEQDSKDSTYSLSSTLTLSKADYEKHKVYACEVTHQGLSSPVTKSFNRGEC EVQLVESGGGLVQPGGSLRLSCAASGYSFTGYTMNWVRQAPGKGLEWVALINPYKGVSTYNQKFKDRFTISVDKSKNTAYLQMNSLRAEDTAVYYCARSGYYGDSDWYFDVWGQGTLVTVSSASVAAPSVFIFPPSDEQLKSGTASVVCLLNNFYPREAKVQWKVDNALQSGNSQESVTEQDSKDSTYSLSSTLTLSKADYEKHKVYACEVTHQGLSSPVTKSFNRGEC	0.749 nM	0.00453 nM	33 nM	0.0167 s⁻¹	507000 M⁻¹ s⁻¹	5.52 nM	0.175 nM	
